Source: PMC11678932, “A Signal-On Microelectrode Electrochemical Aptamer Sensor Based on AuNPs–MXene for Alpha-Fetoprotein Determination”

Target: T1, alpha-fetoprotein (AFP) (UniProt P02771 19-609)
T1 sequence: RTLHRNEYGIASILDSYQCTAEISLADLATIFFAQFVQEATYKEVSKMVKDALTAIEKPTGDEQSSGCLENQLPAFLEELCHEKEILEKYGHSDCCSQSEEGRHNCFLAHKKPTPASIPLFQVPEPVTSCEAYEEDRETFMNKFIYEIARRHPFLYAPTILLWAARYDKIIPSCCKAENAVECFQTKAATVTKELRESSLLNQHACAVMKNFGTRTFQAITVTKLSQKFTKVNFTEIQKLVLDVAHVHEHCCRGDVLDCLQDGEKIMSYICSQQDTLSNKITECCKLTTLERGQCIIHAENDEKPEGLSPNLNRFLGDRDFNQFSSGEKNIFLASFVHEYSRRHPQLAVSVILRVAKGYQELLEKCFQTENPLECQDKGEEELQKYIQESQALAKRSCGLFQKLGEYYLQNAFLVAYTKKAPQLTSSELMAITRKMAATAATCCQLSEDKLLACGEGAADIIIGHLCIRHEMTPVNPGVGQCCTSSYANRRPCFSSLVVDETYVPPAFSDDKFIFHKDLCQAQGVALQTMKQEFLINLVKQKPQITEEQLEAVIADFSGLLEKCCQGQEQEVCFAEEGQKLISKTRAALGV
Test: electrochemical aptasensor (DPV); signal-on; log-linear 1-300 ng/mL, LOD 0.05 ng/mL (not a Kd); Optimized: pH 7, 4 uM aptamer, 40 min aptamer and 30 min AFP incubation; PBS (0.01 M) listed as reagent; temperature not stated for binding
Details: protein: commercial; label: 3'-methylene blue

B1: AFP aptamer (ssDNA)
DNA: GTGACGCTCCTAACGCTGACTCAGGTGCAGTTCTCGACTCGGTCTTGATGTGGGTCCTGTCCGTCCGAACCAATC
modifications: 5'-SH; 3'-methylene blue
binding result: binds
